For test [1], the target named is HLA-A2 on T2 cells without added peptide (human). Description: flow cytometry, T2 cells without peptide, antibody 10 µg/mL.
In test [2] the target is WT1RMF/HLA-A2 complex on cells (human). Kind of test: flow cytometry, T2 cells pulsed with 25 µM WT1RMF, antibody 10 µg/mL.
The target in test [3] is PIGQ/HLA complex on PIGQ-pulsed T2 cells (human). Description: flow cytometry, T2 cells pulsed with 25 µM PIGQ peptide, antibody 10 µg/mL.
The target in test [4] is MED13L/HLA complex on MED13L-pulsed T2 cells (human). Kind of test: flow cytometry, T2 cells pulsed with 25 µM MED13L peptide, antibody 10 µg/mL.

Our source for the Percentage of Positive Cells (%) values is patent US20260152571A1.

Take ISO (antibody): the Percentage of Positive Cells (%) in test [1] stood at 5.43%; in test [2], 4.93%; in test [3], 4.78%; in test [4], 5.38%.
